One data set has as its system Q9RGN5. Briefly: AFM single-molecule force spectroscopy; MUB covalently attached to both the AFM tip and the glass slide; PBS pH 7.4; force-volume mode; repeated after adding free MUB (0.05 mg/mL) or anti-Mub antibody (0.05 mg/mL). To be noted: other: AFM single-molecule force spectroscopy.
The target of data set [1] is purified porcine gastric mucin (pPGM) (porcine). The data set is described as follows: AFM single-molecule force spectroscopy; Gal-3 covalently attached to the AFM tip, pPGM covalently attached to the glass slide; PBS pH 7.4; force-volume mode.
Data set [2] has the same target. Briefly: AFM single-molecule force spectroscopy; MUB covalently attached to the AFM tip, pPGM covalently attached to the glass slide; PBS pH 7.4; force-volume mode, 2 um/s, 1024 force-distance curves; repeated on the same region after adding free sugars or anti-Mub antibody (0.05 mg/mL).
The target of data set [3] is mucus-binding protein (MUB) from Lactobacillus reuteri ATCC 53608 (Lactobacillus reuteri ATCC 53608) (UniProt Q9RGN5). Briefly: AFM single-molecule force spectroscopy; MUB covalently attached to both the AFM tip and the glass slide; PBS pH 7.4; force-volume mode; repeated after adding free MUB (0.05 mg/mL) or anti-Mub antibody (0.05 mg/mL).

Regarding “mucus-binding protein (MUB) from Lactobacillus reuteri ATCC 53608”, the “percent of force curves with unfolding events” value in the data set with Q9RGN5 is listed as “the numbers of unfolding events in the force volume maps were 71% of the 1024 force curves”.
Consider “Galectin-3 (Gal-3) (from UniProt P17931 1-250) (natural protein)”, for which, in data set [1], the binding energy is 0.79 aJ and the energy (integration of the adhesive peaks) is 3.08 aJ.
In data set [2], “mucus-binding protein (MUB) from Lactobacillus reuteri ATCC 53608 (from UniProt Q9RGN5 1-3269) (natural protein)” yielded a modal value of the rupture adhesion force of 380 pN and a modal value of the rupture adhesion force (PBS, before the antibody) of 482 pN. The substance also showed a modal value of the rupture adhesion force in data set [3] of 209 pN.

(Values after article PMC5133854.)
